According to PMC6286129, “CryoEM structures of open dimers of gyrase A in complex with DNA illuminate mechanism of strand passage” (eLife, 2018):

What was measured:
[1] = molecular target: the molecule itself; assay: cryo-EM structure; Dihedral complex: GyrA-ΔCTD mixed with 44 bp DNA and ciprofloxacin, no GyrB; purified on a glycerol/glutaraldehyde gradient (GraFix); also a low resolution reconstruction without glutaraldehyde or antibiotics
[2] = molecular target: the molecule itself; assay: cryo-EM structure; Tetrahedral complex: GyrA-ΔCTD mixed with GyrB, 44 bp DNA, ciprofloxacin and novobiocin; purified on a glycerol/glutaraldehyde gradient (GraFix)

B1: Streptococcus pneumoniae gyrase A subunit with truncated C-terminal domain (GyrA-ΔCTD, residues 1–487) (domain or fragment, UniProt P72524 1-487, looked up)
chain: MQDKNLVNVNLTKEMKASFIDYAMSVIVARALPDVRDGLKPVHRRILYGMNELGVTPDKPHKKSARITGDVMGKYHPHGDSSIYEAMVRMAQWWSYRYMLVDGHGNFGSMDGDSAAAQRYTEARMSKIALEMLRDINKNTVDFVDNYDANEREPLVLPARFPNLLVNGATGIAVGMATNIPPHNLGETIDAVKLVMDNPEVTTKDLMEVLPGPDFPTGALVMGKSGIHKAYETGKGSIVLRSRTEIETTKTGRERIVVTEFPYMVNKTKVHEHIVRLVQEKRIEGITAVRDESNREGVRFVIEVKRDASANVILNNLFKMTQMQTNFGFNMLAIQNGIPKILSLRQILDAYIEHQKEVVVRRTRFDKEKAEARAHILEGLLIALDHIDEVIRIIRASETDAEAQAELMSKFKLSERQSQAILDMRLRRLTGLERDKIQSEYDDLLALIADLADILAKPERVSQIIKDELDEVKRKFSDKRRTELMIG
notes: DNA gyrase subunit A, Streptococcus pneumoniae, gene cloned from the ATCC genome 700669DQ; residues 1-487 (C-terminal domain removed); The vector pMCSG7 adds 24 amino acids at the N-terminus, with a six amino acid His-tag and a TEV cleavage site; It forms open dimers that assemble around a 44 bp DNA into oligomers of four dimers (Dihedral complex) or six dimers (Tetrahedral complex); also called …
[1]
  stoichiometry N: 8 monomers
[2]
  stoichiometry N: 12 monomers
